Source: the Human Domainome abundance scans (Beltran et al. 2025)

B1: Dynamin-binding protein, residues 242 to 304; numbered along this chain, Q6XZF7 (parent)
chain: EEPGTYGVALYRFQALEPNELDFEVGDKIRILATLEDGWLEGSLKGRTGIFPYRFVKLCPDTR

Variants of: B1
Experiment: abundance fitness (aPCA) (normalised: wild type 0, dead -1); higher = more abundant; growth selection in yeast, the domain comes from the species named
Conditions: Homo sapiens

Abundance fitness: each site, then its substitutions
L40: Y -0.259 | G -0.383 | C 0.113 | M -0.074 | W -0.473 | P -0.642 | N -0.784 | K -1.11 | Q -0.312 | V 0.092 | R -0.627 | S -0.325 | T -0.394 | I -0.244 | F -0.393 | A 0.18
T34: V -0.192 | P -0.59 | D -0.114 | Q -0.183 | E -0.038 | L -0.41 | A -0.33 | I -0.168 | G -0.481 | K -0.036 | C -0.323 | F -0.063 | N -0.289 | S -0.077 | R -0.196 | M -0.086 | H 0.067
E36: A 0.027 | R -0.331 | C -0.434 | V -0.777 | Q -0.312 | T -0.277 | F -0.711 | P -0.171 | G -0.167 | L -0.698 | I -1.02 | N -0.156 | W -0.612 | K -0.099 | S -0.212
W39: S -0.56 | R -0.144 | T -0.492 | K -0.395 | D -0.661 | H -0.749 | I -0.546 | N -0.406 | F -0.168 | G -0.714 | M -0.057 | Y -0.135 | A -0.56 | E -0.379 | L -0.184 | Q -0.285 | P -0.738
A33: S 0.043 | Y -0.568 | M -0.438 | E -0.578 | C -0.291 | K 0.005 | V -0.445 | D -0.24 | Q -0.188 | H -0.021 | W -0.671 | F -0.726 | G -0.201 | N 0.017 | T -0.009 | R 0.033 | I -0.703 | P -0.429 | L -0.644
L35: M -0.413 | W -0.642 | R 0.13 | V -0.203 | C -0.178 | Q 0.009 | T -0.339 | K 0.137 | N -0.544 | F -0.315 | A -0.304 | H -0.114 | S -0.241 | I -0.131 | Y -0.187 | G -0.374 | D -0.664 | E -0.876
E41: Y -0.274 | D -0.732 | I -0.465 | P -0.669 | W 0.056 | M 0.073 | N -0.527 | R -0.019 | S -0.116 | Q -0.064 | L -0.256 | H -0.072 | G -0.76 | K 0.017 | C -0.115
G38: N -0.539 | K -1.06 | V -0.668 | L -0.61 | H -0.454 | I -0.769 | W -1.05 | E -0.633 | S -0.545 | T -0.983 | M -0.803 | R -0.482 | P -1.06 | A -0.842 | F -0.71
L32: Y -0.744 | R -0.592 | T -0.312 | W -0.784 | V -0.176
D37: H -0.274 | S -0.257 | V -0.561 | C -0.195 | N -0.116 | Q -0.298 | L -0.663 | K -0.287 | M -1.02 | E -0.407 | I -0.89 | P -0.476 | A -0.452 | G -0.073 | R -0.59 | T -0.361 | F -0.56
G42: D -0.578 | H -0.282 | A -0.702 | I -0.707 | P -0.872 | R -0.84 | K -0.892 | L -0.45 | N -0.891 | S -0.846 | F -0.745 | M -0.987 | C -0.859
